PMC9352680, “A comprehensive thermodynamic model for RNA binding by the Saccharomyces cerevisiae Pumilio protein PUF4”

T1: PUF4 RNA-binding domain (Saccharomyces cerevisiae, UniProt P25339 537-888)
T1 sequence: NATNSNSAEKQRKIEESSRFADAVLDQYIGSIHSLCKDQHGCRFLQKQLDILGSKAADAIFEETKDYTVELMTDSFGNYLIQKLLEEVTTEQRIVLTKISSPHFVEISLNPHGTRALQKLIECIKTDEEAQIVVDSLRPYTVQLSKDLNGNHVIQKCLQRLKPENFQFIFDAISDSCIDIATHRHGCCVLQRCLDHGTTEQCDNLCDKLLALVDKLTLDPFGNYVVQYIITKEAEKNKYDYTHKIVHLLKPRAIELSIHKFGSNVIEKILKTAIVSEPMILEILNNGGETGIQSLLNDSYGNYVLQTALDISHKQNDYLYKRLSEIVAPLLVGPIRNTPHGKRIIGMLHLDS


Target: T1, PUF4 RNA-binding domain
Experiment: Mg; RNA-MaP; 20 mM Na-HEPES pH 7.4, 30 mM KOAc, 0.75 mM MgCl2, 0.1% Tween-20, 5% glycerol, 0.1 mg/mL BSA, 2 mM DTT; 25 C; 0.0125-409.6 nM protein
Settings: tags: N-His6-TEV cleaved; C-SNAP kept, Cy3B-labelled; label: tethered on chip by stalled RNA polymerase

Binder	Kd [nM]
UCUCUUCAACACUAUAUCUCUCUU (ssRNA) [Id_ii_S1_P3E.4_K3.3_C3.2_[T-1A]_H3.3_A3.1_F3.1_T3.2_[A10C]]	> 2300
UCUCUUCCACACUAUAGCUCUCUU (ssRNA) [Id_ii_S1_P3E.4_K3.3_C3.2_[T-1C]_H3.3_A3.1_F3.1_T3.2_[T9G]_[A10C]]	> 2300
UCUCUUGUUGUAUAUUAAAUCUCUU (ssRNA) [Id_ii_S1_P4E.2_K4.1_C4.2_[C-2G]_H4.1_A4.1_F4.1_T4.2_[G10A]_[T11A]]	1.78
UCUCUUGCUGUAUAUUAUGUCUCUU (ssRNA) [Id_ii_S1_P4E.2_K4.1_C4.2_[C-2G]_[T-1C]_H4.1_A4.1_F4.1_T4.2_[G10T]_[T11G]]	2.24
UCUCUUUGUGUAUAUUAAAUCUCUU (ssRNA) [Id_ii_S1_P4E.2_K4.1_C4.2_[C-2T]_[T-1G]_H4.1_A4.1_F4.1_T4.2_[G10A]_[T11A]]	1.47
UCUCUUCUACACUAUAACUCUCUU (ssRNA) [Id_ii_S1_P3E.4_K3.3_C3.2_H3.3_A3.1_F3.1_T3.2_[T9A]_[A10C]]	> 2300
UCUCUUAUACACUAUAACUCUCUU (ssRNA) [Id_ii_S1_P3E.4_K3.3_C3.2_[C-2A]_H3.3_A3.1_F3.1_T3.2_[T9A]_[A10C]]	46.2
UCUCUUUCUGUAUAUUAUAUCUCUU (ssRNA) [Id_ii_S1_P4E.2_K4.1_C4.2_[C-2T]_[T-1C]_H4.1_A4.1_F4.1_T4.2_[G10T]_[T11A]]	0.738
UCUCUUUGUGUAUAUUAUGUCUCUU (ssRNA) [Id_ii_S1_P4E.2_K4.1_C4.2_[C-2T]_[T-1G]_H4.1_A4.1_F4.1_T4.2_[G10T]_[T11G]]	0.968
UCUCUUGUUGUAUAUUAUGUCUCUU (ssRNA) [Id_ii_S1_P4E.2_K4.1_C4.2_[C-2G]_H4.1_A4.1_F4.1_T4.2_[G10T]_[T11G]]	1.07
UCUCUUCGACACUAUACUUCUCUU (ssRNA) [Id_ii_S1_P3E.4_K3.3_C3.2_[T-1G]_H3.3_A3.1_F3.1_T3.2_[T9C]_[A10T]]	> 2300
UCUCUUUAUAUAGUAUCUCUU (ssRNA) [Ib_S1_P4E.1_K4.1_C4.1_H4.1_[G2A]_A4.1_[T7G]_F4.1_T4.1]	50.5
UCUCUUCGACACUAUAGCUCUCUU (ssRNA) [Id_ii_S1_P3E.4_K3.3_C3.2_[T-1G]_H3.3_A3.1_F3.1_T3.2_[T9G]_[A10C]]	> 2300
UCUCUUGUUGUAUAUUAUUUCUCUU (ssRNA) [Id_ii_S1_P4E.2_K4.1_C4.2_[C-2G]_H4.1_A4.1_F4.1_T4.2_[G10T]]	0.762
UCUCUUGUUGUAUAUUAAUUCUCUU (ssRNA) [Id_ii_S1_P4E.2_K4.1_C4.2_[C-2G]_H4.1_A4.1_F4.1_T4.2_[G10A]]	1.25
UCUCUUUCUGUAUAUUACUUCUCUU (ssRNA) [Id_ii_S1_P4E.2_K4.1_C4.2_[C-2T]_[T-1C]_H4.1_A4.1_F4.1_T4.2_[G10C]]	0.672
UCUCUUCGACACUAUAAUUCUCUU (ssRNA) [Id_ii_S1_P3E.4_K3.3_C3.2_[T-1G]_H3.3_A3.1_F3.1_T3.2_[T9A]_[A10T]]	> 2300
UCUCUUAUACACUAUAUAUCUCUU (ssRNA) [Id_ii_S1_P3E.4_K3.3_C3.2_[C-2A]_H3.3_A3.1_F3.1_T3.2]	31.3
UCUCUUUGUGUAUAUUAGUUCUCUU (ssRNA) [Id_ii_S1_P4E.2_K4.1_C4.2_[C-2T]_[T-1G]_H4.1_A4.1_F4.1_T4.2]	0.304
UCUCUUUCUGUAUAUUAACUCUCUU (ssRNA) [Id_ii_S1_P4E.2_K4.1_C4.2_[C-2T]_[T-1C]_H4.1_A4.1_F4.1_T4.2_[G10A]_[T11C]]	0.887
UCUCUUCAACACUAUAGAUCUCUU (ssRNA) [Id_ii_S1_P3E.4_K3.3_C3.2_[T-1A]_H3.3_A3.1_F3.1_T3.2_[T9G]]	> 2300

Binder	Kd [nM]
UCUCUUGUUGUAUAUUAGUUCUCUU (ssRNA) [Id_ii_S1_P4E.2_K4.1_C4.2_[C-2G]_H4.1_A4.1_F4.1_T4.2]	0.355
UCUCUUCUACACUAUAUAUCUCUU (ssRNA) [If_S1_P3E.4_K3.3_C3.2_H3.3_A3.1_F3.1_T3.2]	1000
UCUCUUUCUGUAUAUUAAGUCUCUU (ssRNA) [Id_ii_S1_P4E.2_K4.1_C4.2_[C-2T]_[T-1C]_H4.1_A4.1_F4.1_T4.2_[G10A]_[T11G]]	2.74
UCUCUUGUUGUAUAUUAUCUCUCUU (ssRNA) [Id_ii_S1_P4E.2_K4.1_C4.2_[C-2G]_H4.1_A4.1_F4.1_T4.2_[G10T]_[T11C]]	0.891
UCUCUUCCACACUAUACUUCUCUU (ssRNA) [Id_ii_S1_P3E.4_K3.3_C3.2_[T-1C]_H3.3_A3.1_F3.1_T3.2_[T9C]_[A10T]]	> 2300
UCUCUUUCUGUAUAUUAAAUCUCUU (ssRNA) [Id_ii_S1_P4E.2_K4.1_C4.2_[C-2T]_[T-1C]_H4.1_A4.1_F4.1_T4.2_[G10A]_[T11A]]	1.06
UCUCUUUCUGUAUAUUACCUCUCUU (ssRNA) [Id_ii_S1_P4E.2_K4.1_C4.2_[C-2T]_[T-1C]_H4.1_A4.1_F4.1_T4.2_[G10C]_[T11C]]	0.848
UCUCUUUGUGUAUAUUAUCUCUCUU (ssRNA) [Id_ii_S1_P4E.2_K4.1_C4.2_[C-2T]_[T-1G]_H4.1_A4.1_F4.1_T4.2_[G10T]_[T11C]]	1.06
UCUCUUGCUGUAUAUUAUAUCUCUU (ssRNA) [Id_ii_S1_P4E.2_K4.1_C4.2_[C-2G]_[T-1C]_H4.1_A4.1_F4.1_T4.2_[G10T]_[T11A]]	1.92
UCUCUUCCACACUAUACCUCUCUU (ssRNA) [Id_ii_S1_P3E.4_K3.3_C3.2_[T-1C]_H3.3_A3.1_F3.1_T3.2_[T9C]_[A10C]]	> 2300
UCUCUUUCUGUAUAUUAGUUCUCUU (ssRNA) [Id_ii_S1_P4E.2_K4.1_C4.2_[C-2T]_[T-1C]_H4.1_A4.1_F4.1_T4.2]	0.308
UCUCUUUGUGUAUAUUAUUUCUCUU (ssRNA) [Id_ii_S1_P4E.2_K4.1_C4.2_[C-2T]_[T-1G]_H4.1_A4.1_F4.1_T4.2_[G10T]]	0.848
UCUCUUCUACACUAUACAUCUCUU (ssRNA) [Id_ii_S1_P3E.4_K3.3_C3.2_H3.3_A3.1_F3.1_T3.2_[T9C]]	2230
UCUCUUUUUAUACUAUCUCUU (ssRNA) [Ib_S1_P4E.1_K4.1_C4.1_H4.1_[G2T]_A4.1_[T7C]_F4.1_T4.1]	1060
UCUCUUAUACACUAUAUUUCUCUU (ssRNA) [Id_ii_S1_P3E.4_K3.3_C3.2_[C-2A]_H3.3_A3.1_F3.1_T3.2_[A10T]]	38.6
UCUCUUGCUGUAUAUUAACUCUCUU (ssRNA) [Id_ii_S1_P4E.2_K4.1_C4.2_[C-2G]_[T-1C]_H4.1_A4.1_F4.1_T4.2_[G10A]_[T11C]]	1.52
UCUCUUCUACACUAUAUCUCUCUU (ssRNA) [Id_ii_S1_P3E.4_K3.3_C3.2_H3.3_A3.1_F3.1_T3.2_[A10C]]	1460
UCUCUUGCUGUAUAUUACCUCUCUU (ssRNA) [Id_ii_S1_P4E.2_K4.1_C4.2_[C-2G]_[T-1C]_H4.1_A4.1_F4.1_T4.2_[G10C]_[T11C]]	0.957
UCUCUUGCUGUAUAUUAUCUCUCUU (ssRNA) [Id_ii_S1_P4E.2_K4.1_C4.2_[C-2G]_[T-1C]_H4.1_A4.1_F4.1_T4.2_[G10T]_[T11C]]	1.14
UCUCUUCGACACUAUAACUCUCUU (ssRNA) [Id_ii_S1_P3E.4_K3.3_C3.2_[T-1G]_H3.3_A3.1_F3.1_T3.2_[T9A]_[A10C]]	> 2300
UCUCUUCUACACUAUAGUUCUCUU (ssRNA) [Id_ii_S1_P3E.4_K3.3_C3.2_H3.3_A3.1_F3.1_T3.2_[T9G]_[A10T]]	> 2300

Binder	Kd [nM]
UCUCUUUGUGUAUAUUAAUUCUCUU (ssRNA) [Id_ii_S1_P4E.2_K4.1_C4.2_[C-2T]_[T-1G]_H4.1_A4.1_F4.1_T4.2_[G10A]]	1.63
UCUCUUGCUGUAUAUUAAUUCUCUU (ssRNA) [Id_ii_S1_P4E.2_K4.1_C4.2_[C-2G]_[T-1C]_H4.1_A4.1_F4.1_T4.2_[G10A]]	2.69
UCUCUUCAACACUAUACCUCUCUU (ssRNA) [Id_ii_S1_P3E.4_K3.3_C3.2_[T-1A]_H3.3_A3.1_F3.1_T3.2_[T9C]_[A10C]]	> 2300
UCUCUUCUACACUAUAGCUCUCUU (ssRNA) [Id_ii_S1_P3E.4_K3.3_C3.2_H3.3_A3.1_F3.1_T3.2_[T9G]_[A10C]]	> 2300
UCUCUUUCUGUAUAUUAUGUCUCUU (ssRNA) [Id_ii_S1_P4E.2_K4.1_C4.2_[C-2T]_[T-1C]_H4.1_A4.1_F4.1_T4.2_[G10T]_[T11G]]	0.963
UCUCUUUAUAUACUAUCUCUU (ssRNA) [Ib_S1_P4E.1_K4.1_C4.1_H4.1_[G2A]_A4.1_[T7C]_F4.1_T4.1]	17.8
UCUCUUAUACACUAUAUCUCUCUU (ssRNA) [Id_ii_S1_P3E.4_K3.3_C3.2_[C-2A]_H3.3_A3.1_F3.1_T3.2_[A10C]]	40.6
UCUCUUCCACACUAUACAUCUCUU (ssRNA) [Id_ii_S1_P3E.4_K3.3_C3.2_[T-1C]_H3.3_A3.1_F3.1_T3.2_[T9C]]	> 2300
UCUCUUCUACACUAUAUGUCUCUU (ssRNA) [Id_ii_S1_P3E.4_K3.3_C3.2_H3.3_A3.1_F3.1_T3.2_[A10G]]	1320
UCUCUUUUUAUAAUAUCUCUU (ssRNA) [Ib_S1_P4E.1_K4.1_C4.1_H4.1_[G2T]_A4.1_[T7A]_F4.1_T4.1]	1450
UCUCUUUAUAUAAUAUCUCUU (ssRNA) [Ib_S1_P4E.1_K4.1_C4.1_H4.1_[G2A]_A4.1_[T7A]_F4.1_T4.1]	61.4
UCUCUUCCACACUAUAUUUCUCUU (ssRNA) [Id_ii_S1_P3E.4_K3.3_C3.2_[T-1C]_H3.3_A3.1_F3.1_T3.2_[A10T]]	> 2300
UCUCUUCCACACUAUAAAUCUCUU (ssRNA) [Id_ii_S1_P3E.4_K3.3_C3.2_[T-1C]_H3.3_A3.1_F3.1_T3.2_[T9A]]	> 2300
UCUCUUAUACACUAUAAUUCUCUU (ssRNA) [Id_ii_S1_P3E.4_K3.3_C3.2_[C-2A]_H3.3_A3.1_F3.1_T3.2_[T9A]_[A10T]]	43.5
UCUCUUUCUGUAUAUUAUCUCUCUU (ssRNA) [Id_ii_S1_P4E.2_K4.1_C4.2_[C-2T]_[T-1C]_H4.1_A4.1_F4.1_T4.2_[G10T]_[T11C]]	0.77
UCUCUUCUACACUAUAAUUCUCUU (ssRNA) [Id_ii_S1_P3E.4_K3.3_C3.2_H3.3_A3.1_F3.1_T3.2_[T9A]_[A10T]]	1870
UCUCUUUCUGUAUAUUAUUUCUCUU (ssRNA) [Id_ii_S1_P4E.2_K4.1_C4.2_[C-2T]_[T-1C]_H4.1_A4.1_F4.1_T4.2_[G10T]]	0.502
UCUCUUCAACACUAUAACUCUCUU (ssRNA) [Id_ii_S1_P3E.4_K3.3_C3.2_[T-1A]_H3.3_A3.1_F3.1_T3.2_[T9A]_[A10C]]	> 2300
UCUCUUCCACACUAUAAUUCUCUU (ssRNA) [Id_ii_S1_P3E.4_K3.3_C3.2_[T-1C]_H3.3_A3.1_F3.1_T3.2_[T9A]_[A10T]]	> 2300
UCUCUUGCUGUAUAUUAUUUCUCUU (ssRNA) [Id_ii_S1_P4E.2_K4.1_C4.2_[C-2G]_[T-1C]_H4.1_A4.1_F4.1_T4.2_[G10T]]	1.28
UCUCUUCAACACUAUAAAUCUCUU (ssRNA) [Id_ii_S1_P3E.4_K3.3_C3.2_[T-1A]_H3.3_A3.1_F3.1_T3.2_[T9A]]	> 2300
